The supplement of paper PMC12783771
± gives the standard deviation of the averaged measurements.

B1: library; numbered along this chain (parent)
chain: MNIQIGELAKRTACPVVTIRFYEQEGLLPPPGRSRGNFRLYGEEHVERLQFIRHCRSLDMPLSDVRTLLSYRKRPDQDCGEVNMLLDEHIRQVESRIGALLELKHHLVELREACSGARPAQSCGILQGLSDCVCDTRGTTAHPSD

Key:
[1] = variants of: B1; assay: sfGFP reporter fluorescence (15 h) (µM FITC); higher = higher leak; conditions: library round: Round 0; ligand: none
Experimental: (§1)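 Cell-free (BL21 Star DE3 extract, PANOx-SP) biosensing: 1 µL Echo-assembled reactions with linear PbrR variant templates (5 nM) and pPbrR-sfGFP reporter, with 1 µM Pb (lead chloride), 30 µM Zn (zinc acetate) or no ligand; endpoint sfGFP fluorescence after 15 h at 30 °C, calibrated as µM FITC. Round 0 library (alanine scan, site saturation, combinatorial) of PbrR from Cupriavidus metallidurans; 2 biological replicates.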

[2] = variants of: B1; assay: sfGFP reporter fluorescence (15 h) (µM FITC); higher = stronger transcriptional activation; conditions: library round: Round 0
Experimental: as §1

Variant	sfGFP reporter fluorescence [1]	sfGFP reporter fluorescence ([2]; ligand: 1 µM Pb)	sfGFP reporter fluorescence ([2]; ligand: 30 µM Zn)
V82F	0.0572	0.0572 ± 0.0015	0.053 ± 0.0023
V82Y	0.0588 ± 0.0034	0.05864 ± 0.00052	0.0544 ± 0.0013
V82S	0.0592 ± 0.0023	0.057 ± 0.0018	0.05552 ± 0.00026
V82T	0.0588 ± 0.0013	0.059 ± 0.0021	0.0583 ± 0.0057
V82G	0.0555 ± 0.0023	0.0564 ± 0.001	0.0548 ± 0.0018
D64K K104V L107C	2.05 ± 0.034	4.21 ± 0.2	4.1 ± 0.055
Y41I	0.0575 ± 0.0015	0.0572 ± 0.0021	0.0623 ± 0.0031
L68Q	0.0603 ± 0.00078	0.05736 ± 0.00026	0.0629 ± 0.0018
L68E	0.0623 ± 0.00052	0.05974 ± 0.00052	0.0652 ± 0.0015
L68V	0.0603 ± 0.0018	0.0632 ± 0.0013	0.384 ± 0.035
L68H	0.0623 ± 0.0026	0.0577 ± 0.0013	0.0795 ± 0.0015
L68Y	0.0634	0.0773 ± 0.0031	0.908 ± 0.05
L68C	0.0678 ± 0.0031	0.0874 ± 0.0044	0.504 ± 0.017
V108C	0.0594 ± 0.0026	0.0788 ± 0.0015	1.04 ± 0.091
V108T	0.0588 ± 0.00078	0.0724 ± 0.00078	0.795 ± 0.063
V108Q	0.0566 ± 0.00078	0.068 ± 0.0018	0.672 ± 0.06
V108D	0.061 ± 0.00078	0.0931 ± 0.0015	1.45 ± 0.068
V108H	0.05772 ± 0.00026	0.0814 ± 0.0073	0.846 ± 0.019
N37A	0.0634 ± 0.001	0.0729 ± 0.0042	0.481 ± 0.007
Q77A	0.0698 ± 0.0013	0.128 ± 0.045	1.48 ± 0.31
S70A	0.0678 ± 0.0052	0.072 ± 0.0054	0.281 ± 0.061
L110S	0.05626 ± 0.00026	0.05772 ± 0.00026	0.0614 ± 0.0018

Variant	sfGFP reporter fluorescence [1]	sfGFP reporter fluorescence ([2]; ligand: 1 µM Pb)	sfGFP reporter fluorescence ([2]; ligand: 30 µM Zn)
L110M	0.0568 ± 0.0015	0.05644 ± 0.00052	0.0574 ± 0.0023
L110I	0.05571 ± 0.00052	0.0579 ± 0.0015	0.542 ± 0.036
L110E	0.059 ± 0.001	0.0614 ± 0.0013	0.0579 ± 0.001
L110F	0.05626 ± 0.00026	0.0599 ± 0.0018	0.0619 ± 0.0021
V16P	0.06102 ± 0.00026	0.08796 ± 0.00052	1.53 ± 0.031
V16M	0.0647 ± 0.0029	0.099 ± 0.0052	0.9379 ± 0.0042
D64L	2.28 ± 0.17	3.29 ± 0.26	4.32 ± 0.14
D64N	0.06652 ± 0.00026	0.137 ± 0.006	1.64 ± 0.084
D64Q	0.0579 ± 0.001	0.0808 ± 0.0029	0.781 ± 0.044
R33K	0.064 ± 0.0013	0.0634 ± 0.0042	0.112 ± 0.0065
R33P	0.0607 ± 0.0013	0.05956 ± 0.00026	0.064 ± 0.00078
R33G	0.0577 ± 0.00078	0.0575 ± 0.0015	0.0599 ± 0.0018
R33Y	0.0647 ± 0.0013	0.0618 ± 0.0013	0.0702 ± 0.0029
M60L D64K G128M	3.44 ± 0.06	4.33 ± 0.25	4.46 ± 0.12
M60L D64K G128I	2.06 ± 0.074	3.47 ± 0.32	4.32 ± 0.22
H89D	0.0623 ± 0.0021	0.0669 ± 0.0044	0.08283 ± 0.00052
H89M	0.061 ± 0.0013	0.06359 ± 0.00026	0.1426 ± 0.00052
R39M	0.06139 ± 0.00026	0.0616 ± 0.0026	0.0583
R39S	0.0607 ± 0.00078	0.0603 ± 0.0013	0.0592 ± 0.0023
R39N	0.06102 ± 0.00026	0.0597 ± 0.0015	0.0605
R39L	0.0581 ± 0.0013	0.05901 ± 0.00052	0.055 ± 0.0036
R39P	0.0581 ± 0.00078	0.0597 ± 0.001	0.0581 ± 0.0029

Variant	sfGFP reporter fluorescence [1]	sfGFP reporter fluorescence ([2]; ligand: 1 µM Pb)	sfGFP reporter fluorescence ([2]; ligand: 30 µM Zn)
P61N K104V G128M	0.395 ± 0.015	1.034 ± 0.006	3.13 ± 0.069
L27E	0.0603 ± 0.0013	0.0616 ± 0.0015	0.0577 ± 0.00078
Q92A	0.0592 ± 0.0013	0.063 ± 0.0026	0.421 ± 0.042
S130A	0.0599 ± 0.0013	0.0821 ± 0.001	0.862 ± 0.14
M60F	1.94 ± 0.16	2.94 ± 0.1	2.92 ± 0.028
M60N	0.0616 ± 0.001	0.0607 ± 0.0018	0.061 ± 0.0013
T12A	0.0564 ± 0.0026	0.0733 ± 0.0015	0.611 ± 0.019
E47A	0.0612	0.0779 ± 0.0049	0.791 ± 0.039
P143D	0.05754 ± 0.00052	0.0733 ± 0.0021	0.782 ± 0.024
K104F	0.0581 ± 0.011	0.117 ± 0.029	0.889 ± 0.037
K104C	0.0614 ± 0.0091	0.133 ± 0.026	1.32 ± 0.18
K104I	0.0616 ± 0.0057	0.165 ± 0.044	1.22 ± 0.053
L62K	0.0632 ± 0.0013	0.0619 ± 0.001	0.0815 ± 0.0018
L62V	0.0621 ± 0.0018	0.08008 ± 0.00078	0.396 ± 0.0088
L62D	0.06066 ± 0.00026	0.0629 ± 0.0018	0.0649 ± 0.001
L62W	0.0616 ± 0.0042	0.0603 ± 0.0034	0.0665 ± 0.0013
G116A	0.0597	0.0581 ± 0.0023	0.18 ± 0.063
C123V	0.05589 ± 0.00026	0.0579 ± 0.0015	0.0541 ± 0.0018
C123D	0.0577 ± 0.0039	0.0586	0.0564 ± 0.0031
C123K	0.0592 ± 0.0039	0.0597 ± 0.001	0.0574 ± 0.0029
C123L	0.05589 ± 0.00026	0.0566 ± 0.0018	0.0542 ± 0.0021
C123M	0.057 ± 0.0013	0.0577 ± 0.00078	0.0544 ± 0.0034

Variant	sfGFP reporter fluorescence [1]	sfGFP reporter fluorescence ([2]; ligand: 1 µM Pb)	sfGFP reporter fluorescence ([2]; ligand: 30 µM Zn)
K73A	0.0621 ± 0.0013	0.0676 ± 0.007	0.42 ± 0.15
G36S	0.0706 ± 0.00078	0.119 ± 0.021	2.69 ± 0.06
G36A	0.0665 ± 0.00078	0.108 ± 0.0067	1.91 ± 0.2
G36N	0.064 ± 0.0018	0.09 ± 0.006	1.41 ± 0.29
G36Q	0.0592 ± 0.0029	0.0676 ± 0.0023	0.3562 ± 0.0026
D135N	0.0588 ± 0.0034	0.0847 ± 0.0078	1.18 ± 0.32
D135R	0.06267 ± 0.00052	0.098 ± 0.0086	0.909 ± 0.043
D135P	0.0557 ± 0.0036	0.0826 ± 0.0049	0.672 ± 0.09
C134N	0.06505 ± 0.00026	0.081 ± 0.0031	1.39 ± 0.12
C134I	0.0678 ± 0.001	0.113 ± 0.0044	1.19 ± 0.11
M60L P61N L107C G128I	1.87 ± 0.42	3.58 ± 0.081	4.97 ± 0.23
C55Y	0.0601 ± 0.0021	0.0623 ± 0.001	0.06011 ± 0.00052
C55W	0.0731 ± 0.0029	0.0935 ± 0.0015	0.136 ± 0.0083
C55Q	0.0594 ± 0.001	0.0588 ± 0.0013	0.0585 ± 0.00078
C55E	0.061 ± 0.0013	0.06029 ± 0.00026	0.0607 ± 0.0013
C55A	0.0647 ± 0.0013	0.126 ± 0.013	1.28 ± 0.066
C55D	0.0608 ± 0.0021	0.061 ± 0.0018	0.0592 ± 0.00078
P30K	0.0632 ± 0.0029	0.0845 ± 0.0013	1.03 ± 0.023
P30M	0.06322 ± 0.00026	0.09162 ± 0.00052	0.859 ± 0.079
P30C	0.0599 ± 0.0023	0.0744 ± 0.0026	0.608 ± 0.025
P30Q	0.06395 ± 0.00026	0.0925 ± 0.0039	1.19 ± 0.066
P30I	0.0563 ± 0.0039	0.0869 ± 0.001	0.926 ± 0.2
